{"source": "paper PMC5752668", "about": "(Nature Communications, 2018)", "molecules": {"B1": {"name": "Rab32FL:GDP (full-length Rab32, residues 1-225, GDP-bound) (natural protein)", "chain": "MAGGGAGDPGLGAAAAPAPETREHLFKVLVIGELGVGKTSIIKRYVHQLFSQHYRATIGVDFALKVLNWDSRTLVRLQLWDIAGQERFGNMTRVYYKEAVGAFVVFDISRSSTFEAVLKWKSDLDSKVHLPNGSPIPAVLLANKCDQNKDSSQSPSQVDQFCKEHGFAGWFETSAKDNINIEEAARFLVEKILVNHQSFPNEENDVDKIKLDQETLRAENKSQCC", "notes": "also called Rab32:GDP; Rab32_(1-225); source: E. coli BL21(DE3)-RIL, purified (Ni-IMAC, TEV cleavage, second IMAC, SEC)"}, "B2": {"name": "Rab32FL-Atto488 (Rab32:GDP labelled at thiol groups with Atto488-Maleimide) (natural protein)", "chain": "B1 chain", "modifications": "thiol groups covalently labeled with Atto488-Maleimide", "notes": "also called Rab32:GDP_(fluor.); fluorescently labeled Rab32FL:GDP; source: E. coli BL21(DE3)-RIL, purified, then labelled with Atto488-Maleimide"}, "B3": {"name": "GtgE_(FL,C45A) (full-length catalytically inactive GtgE, residues 1-228) (enzyme)", "chain": "MLRHIQNSLGSVYRSNTATPQGQIIHHRNFQSQFDTTGNTLYNNAWVCSLNVIKSRDGNNYSALEDITSDNQAFNNILEGIDIIECENLLKEMNVQKIPESSLFTNIKEALQAEVFNSTVEDDFESFISYELQNHGPLMLIRPSLGSECLHAECIVGYDSEVKKVLIYDSMNTSPEWQSNIDVYDKLTLAFNDKYKNEDCSICGLYYDGVYEPKPLHSSSWKDWCTIL", "notes": "source: E. coli BL21(DE3)-RIL, purified (Ni-IMAC, TEV cleavage, second IMAC)"}, "B4": {"name": "Rab32_(18-201):GDP (truncated Rab32, lysine-methylated, for crystallization) (domain or fragment)", "chain": "APETREHLFKVLVIGELGVGKTSIIKRYVHQLFSQHYRATIGVDFALKVLNWDSRTLVRLQLWDIAGQERFGNMTRVYYKEAVGAFVVFDISRSSTFEAVLKWKSDLDSKVHLPNGSPIPAVLLANKCDQNKDSSQSPSQVDQFCKEHGFAGWFETSAKDNINIEEAARFLVEKILVNHQSFPN", "notes": "source: E. coli BL21(DE3)-RIL, purified; complex reductively methylated"}}, "key": {"[1]": {"molecular_target": "T1, Rab32_1-225:GDP:GtgE1-228,C45A complex (Homo sapiens, UniProt Q13637)", "T1 construct": "gene RAB32; full-length Rab32 and full-length GtgE C45A, E. coli, His6-MBP tag cut by TEV, reductively lysine-methylated complex, 1:1 heterodimer; with Cysteine protease GtgE (Salmonella enterica serovar Typhimurium SL1344)", "T1 sequence (Q6EAT3 entry or part of it C45A, one chain of several)": "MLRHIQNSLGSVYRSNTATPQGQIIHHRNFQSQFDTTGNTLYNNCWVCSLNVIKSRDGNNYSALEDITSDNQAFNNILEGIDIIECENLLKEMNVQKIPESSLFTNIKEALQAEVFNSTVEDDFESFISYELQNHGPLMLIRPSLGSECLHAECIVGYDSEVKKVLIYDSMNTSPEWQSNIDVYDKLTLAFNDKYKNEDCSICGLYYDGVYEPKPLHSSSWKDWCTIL", "assay": "X-ray crystallography, […] Å", "format": "binding", "conditions": "nucleotide site of Rab32; crystals from 0.05 M imidazole pH 8, 20% PEG 6000"}, "Rab32FL": {"molecular_target": "T2, Rab32FL (Homo sapiens, UniProt Q13637)", "T2 construct": "gene RAB32; full length, E. coli, N-terminal His6-MBP tag cut by TEV, monomer by SEC", "T2 sequence (Q13637 1-225)": "B1 chain", "assay": "intrinsic GTP hydrolysis, ion-pairing RP-HPLC of nucleotide content", "format": "biochemical", "conditions": "intrinsic GTPase, no GAP; single-exponential fit"}, "[2]": {"molecular_target": "B3", "assay": "ITC", "conditions": "both partners purified"}, "[3]": {"molecular_target": "B3", "assay": "AUC", "conditions": "both partners purified"}, "[4]": {"molecular_target": "B1", "assay": "ITC", "conditions": "both partners purified"}, "[5]": {"molecular_target": "T3, GtgE_(21-214,C45A) (truncated inactive GtgE, lysine-methylated, for crystallization) (Salmonella enterica serovar Typhimurium …, UniProt Q6EAT3 21-214, C45A, surface exposed lysine residues reductively methylated)", "T3 construct": "source: E. coli BL21(DE3)-RIL, purified; complex reductively methylated", "T3 sequence": "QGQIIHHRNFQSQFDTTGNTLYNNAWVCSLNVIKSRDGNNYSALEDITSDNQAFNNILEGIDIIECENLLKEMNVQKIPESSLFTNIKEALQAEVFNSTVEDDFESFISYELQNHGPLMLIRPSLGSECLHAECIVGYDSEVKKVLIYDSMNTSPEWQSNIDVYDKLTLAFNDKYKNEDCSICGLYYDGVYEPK", "assay": "crystal structure", "conditions": "both partners purified"}}}
{"molecule": "Nc1nc2c(ncn2[C@@H]2O[C@H](COP(=O)(O)OP(=O)(O)O)[C@@H](O)[C@H]2O)c(=O)[nH]1", "note": "[GDP]", "values": [{"measurement": "X-ray crystallography, 2.9 Å", "setting": "[1]", "value": "The full-length Rab32:GDP:GtgEC45A structure was solved by molecular replacement"}]}
{"molecule": "Nc1nc2c(ncn2[C@@H]2O[C@H](COP(=O)(O)OP(=O)(O)OP(=O)(O)O)[C@@H](O)[C@H]2O)c(=O)[nH]1", "note": "[GTP]", "values": [{"measurement": "k hydr", "setting": "Rab32FL", "value": "Rab32 has an exceptionally slow intrinsic GTPase-activity with an hydrolysis constant determined"}]}
{"molecule": "B1", "values": [{"measurement": "Kd", "setting": "[2]", "value": 96, "unit": "nM"}]}
{"molecule": "B2", "values": [{"measurement": "Kd", "setting": "[3]", "value": 118, "unit": "nM"}]}
{"molecule": "B3", "values": [{"measurement": "stoichiometry N", "setting": "[4]", "value": 1}]}
{"molecule": "B4", "values": [{"measurement": "binding result", "setting": "[5]", "value": "binds"}]}
